# Reference: paper PMC12368639
# Molecular target: Cluster of Differentiation 147 (CD147) (human)
# Assay: single-molecule force spectroscopy (AFM)
# Chain of Cluster of Differentiation 147 (CD147) (human) (P35613 other isoform, or with tags, fused parts or gaps): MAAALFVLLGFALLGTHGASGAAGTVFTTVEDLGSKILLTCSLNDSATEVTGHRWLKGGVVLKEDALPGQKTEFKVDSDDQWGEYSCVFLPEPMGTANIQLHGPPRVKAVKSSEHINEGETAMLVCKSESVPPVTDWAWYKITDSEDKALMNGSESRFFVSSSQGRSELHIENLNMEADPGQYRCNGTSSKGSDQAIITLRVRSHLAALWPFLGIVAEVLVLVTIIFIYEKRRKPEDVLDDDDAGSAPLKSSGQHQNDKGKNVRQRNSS
substance,measurement,value
Full length Spike Protein (SARS-CoV-2) (from UniProt P0DTC2) (natural protein),mean adhesion force,41.9 pN
same,mean adhesion force (tip contact time 0 s),38.8 pN
same,mean adhesion force at 37 °C,46.2 pN
